According to patent US20040259244A1, “Methods, compositions, and growth and differentiation factors for insulin-producing cells” (priority 2002, published 2004):

B1: BMP-4: Bone Morphogenic Protein (protein, UniProt P12644 293-408, looked up)
Bone morphogenetic protein 4: SPKHHSQRARKKNKNCRRHSLYVDFSDVGWNDWIVAPPGYQAFYCHGDCPFPLADHLNSTNHAIVQTLVNSVNSSIPKACCVPTELSAISMLYLDEYDKVVLKNYQEMVVEGCGCR
B2: Prolactin: A growth factor with strong structural similarity to growth hormone (protein, UniProt P01236 29-227, looked up)
Prolactin: LPICPGGAARCQVTLRDLFDRAVVLSHYIHNLSSEMFSEFDKRYTHGRGFITKAINSCHTSSLATPEDKEQAQQMNQKDFLSLIVSILRSWNEPLYHLVTEVRGMQEAPEAILSKAVEIEEQTKRLLEGMELIVSQVHPETKENEIYPVWSGLPSLQMADEESRLSAYYNLLHCLRRDSHKIDNYLKLLKCRIIHNNNC
B3: Soybean Trypsin Inhibitor: A high-molecular-weight protein (approximately 22,500) containing 198 amino acid residues (protein, UniProt P01070 25-205, looked up)
Trypsin inhibitor A: DFVLDNEGNPLENGGTYYILSDITAFGGIRAAPTGNERCPLTVVQSRNELDKGIGTIISSPYRIRFIAEGHPLSLKFDSFAVIMLCVGIPTEWSVVEDLPEGPAVKIGENKDAMDGWFRLERVSDDEFNNYKLVFCPQQAEDDKCGDIGISIDHDDGTRRLVVSKNKPLVVQFQKLDKESL
B4: KGF: keratinocyte growth factor or FGF-7 (protein, UniProt P21781 32-194, looked up)
Fibroblast growth factor 7: CNDMTPEQMATNVNCSSPERHTRSYDYMEGGDIRVRRLFCRTQWYLRIDKRGKVKGTQEMKNNYNIMEIRTVAVGIVAIKGVESEFYLAMNKEGKLYAKKECNEDCNFKELILENHYNTYASAKWTHNGGEMFVALNQKGIPVRGKKTKKEQKTAHFLPMAIT
B5: Activin A: growth and differentiation factor (protein, UniProt P08476 311-426, looked up)
Inhibin beta A chain: GLECDGKVNICCKKQFFVSFKDIGWNDWIIAPSGYHANYCEGECPSHIAGTSGSSLSFHSTVINHYRMRGHSPFANLKSCCVPTKLRPMSMLYYDDGQNIIKKDIQNMIVEECGCS
B6: P1GF: Placental GF, human (protein, UniProt P49763 19-221, looked up)
Placenta growth factor: LPAVPPQQWALSAGNGSSEVEVVPFQEVWGRSYCRALERLVDVVSEYPSEVEHMFSPSCVSLLRCTGCCGDENLHCVPVETANVTMQLLKIRSGDRPSYVELTFSQHVRCECRHSPGRQSPDMPGDFRADAPSFLPPRRSLPMLFRMEWGCALTGSQSAVWPSSPVPEEIPRMHPGRNGKKQQRKPLREKMKPERCGDAVPRR
B7: Betacellulin: growth and differentiation factor (protein, UniProt P35070 32-111, looked up)
Betacellulin: DGNSTRSPETNGLLCGDPEENCAATTTQSKRKGHFSRCPKQYKHYCIKGRCRFVVAEQTPSCVCDEGYIGARCERVDLFY
B8: TGF beta sRII: TGF beta soluble receptor type 2 (protein, UniProt P37173 23-166, looked up)
extracellular domain: TIPPHVQKSVNNDMIVTDNNGAVKFPQLCKFCDVRFSTCDNQKSCMSNCSITSICEKPQEVCVAVWRKNDENITLETVCHDPKLPYHDFILEDAASPKCIMKEKKKPGETFFMCSCSSDECNDNIIFSEEYNTSNPDLLLVIFQ
modifications: extracellular domain

Test system: conversion of stem cells into insulin producing cells
Type: cell-based
Settings: statistical analysis of insulin content of supernatants, 3 donors, combinatorial array in alginate

Row | Molecule | effect on the conversion of stem cells into insulin producing cells
1 | B1 | potential negative effect
2 | B2 | potential negative effect
3 | B3 | potential negative effect
4 | B4 | potential positive effect
5 | B5 | potential negative effect
6 | B6 | potential negative effect
7 | B7 | potential positive effect
8 | B8 | potential positive effect
